The results in this text go back to patent CN110420334A, “一种药物缀合物和提高药物分子半衰期的方法” (Jiangnan University, priority 2019, dated 2019).

For series [1], the target named is T1, CD13 (Homo sapiens, UniProt P15144).
T1 construct: HUVEC(CD13高表达)，MCF7(CD13不表达); endogenous in cells; host or cells: HUVEC (positive), MCF7 (negative)
As to the kind of experiment: Competitive flow cytometry against fluorescent anti-CD13 antibody (Example 5). The conditions noted are these: HUVEC (CD13 high), 250nM, on ice 1h. Format: binding.

The target of series [2] is T2, LHRH受体 (Homo sapiens, UniProt P30968).
T2 construct: MCF7(LHRH高表达)，UCI107(LHRH不表达); endogenous in cells; host or cells: MCF7 (positive), UCI107 (negative)
T2 sequence (P30968 1-328): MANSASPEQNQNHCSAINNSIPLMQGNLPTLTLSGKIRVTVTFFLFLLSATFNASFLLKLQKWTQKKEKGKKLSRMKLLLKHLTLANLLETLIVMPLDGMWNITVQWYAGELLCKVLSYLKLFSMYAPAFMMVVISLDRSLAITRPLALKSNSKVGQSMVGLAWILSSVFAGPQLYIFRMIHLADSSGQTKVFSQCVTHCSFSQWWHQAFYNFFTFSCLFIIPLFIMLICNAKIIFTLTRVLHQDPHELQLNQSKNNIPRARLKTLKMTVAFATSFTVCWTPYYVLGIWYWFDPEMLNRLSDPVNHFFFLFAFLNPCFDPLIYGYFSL
The series can be described thus: Competitive flow cytometry against fluorescent anti-LHRH receptor antibody (Example 4). Format: binding. As to conditions: MCF7 (LHRH high), 250nM, on ice 1h. In general terms: A flow cytometer gives signals particle by particle.

The conditions of series [3]: mouse, in vivo.

Read-outs that look alike come from different tables or passages of the source. Non-standard residues stand in square brackets, D forms with d. No end group written: not given here. pGlu = O=C1CC[C@@H](C(=O)O)N1

T1 sequence (P15144 whole entry): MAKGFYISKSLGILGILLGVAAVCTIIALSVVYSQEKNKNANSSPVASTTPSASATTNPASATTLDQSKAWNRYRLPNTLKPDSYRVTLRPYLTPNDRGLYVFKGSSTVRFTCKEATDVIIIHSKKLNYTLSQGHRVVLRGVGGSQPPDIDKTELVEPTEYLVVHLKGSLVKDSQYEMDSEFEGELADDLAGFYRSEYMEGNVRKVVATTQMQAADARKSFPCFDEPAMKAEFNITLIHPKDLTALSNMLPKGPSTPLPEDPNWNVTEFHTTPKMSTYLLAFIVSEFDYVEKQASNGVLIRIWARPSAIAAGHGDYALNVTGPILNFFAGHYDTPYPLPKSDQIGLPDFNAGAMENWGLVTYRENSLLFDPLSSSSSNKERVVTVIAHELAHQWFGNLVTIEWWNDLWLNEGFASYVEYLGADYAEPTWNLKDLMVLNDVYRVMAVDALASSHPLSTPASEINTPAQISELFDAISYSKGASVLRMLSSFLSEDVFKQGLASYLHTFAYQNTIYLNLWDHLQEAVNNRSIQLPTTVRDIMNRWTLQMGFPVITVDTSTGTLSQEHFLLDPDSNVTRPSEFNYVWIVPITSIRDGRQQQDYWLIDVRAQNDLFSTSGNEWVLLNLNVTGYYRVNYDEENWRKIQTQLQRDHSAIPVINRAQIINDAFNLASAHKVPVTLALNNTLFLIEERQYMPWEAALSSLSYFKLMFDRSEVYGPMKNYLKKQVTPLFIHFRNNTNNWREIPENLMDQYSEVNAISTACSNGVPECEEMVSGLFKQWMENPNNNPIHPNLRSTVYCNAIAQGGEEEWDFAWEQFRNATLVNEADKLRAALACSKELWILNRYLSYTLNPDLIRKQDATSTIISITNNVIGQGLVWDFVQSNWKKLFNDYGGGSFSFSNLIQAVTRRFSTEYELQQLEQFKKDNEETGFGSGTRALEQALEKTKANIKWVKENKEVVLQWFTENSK

Take “NGR-DNP: cyclic NGR peptide (chain GGGCNGRC) coupled with DNP by amide condensation (not fully specified (bridges); cysteine pairing not given here; also: DNP conjugated by amide condensation, position not given here)”: in series [1], the “competitive inhibition of anti-CD13 antibody binding to HUVEC” value was “竞争性抑制”.

Turning to “Glp-His-Trp-Ser-Tyr-D-Lys-Leu-Arg-Pro-Gly-NH2 (chain 1 [pGlu]HWSY; chain 2 [dK]LRPG-NH2; numbers in words are those of the source; also: chains 1 and 2 are one continuous chain (Tyr-D-Lys peptide bond)) [LHRH]”, in series [2], the “competitive inhibition of anti-LHRH receptor antibody binding to LHRH receptor” value is “竞争性抑制”. Also, the results for the serum half-life in series [3] and in series [3] (iv) were 2.2 min and 2.6 min, respectively.
